This is an account of results in article PMC12160003 (Cell, 2025).

Like-named read-outs stand apart in the source and are kept apart here.

Test [1] deals with T1, Flag/His-tagged recombinant human DNMT1 protein (human, UniProt P26358 1-1616). As to the kind of experiment: co-IP.
For test [2], the target named is T1, Flag/His-tagged recombinant human DNMT1 …. As to the kind of experiment: co-IP. The source holds these as a separate data set.

T1 sequence (P26358 whole entry): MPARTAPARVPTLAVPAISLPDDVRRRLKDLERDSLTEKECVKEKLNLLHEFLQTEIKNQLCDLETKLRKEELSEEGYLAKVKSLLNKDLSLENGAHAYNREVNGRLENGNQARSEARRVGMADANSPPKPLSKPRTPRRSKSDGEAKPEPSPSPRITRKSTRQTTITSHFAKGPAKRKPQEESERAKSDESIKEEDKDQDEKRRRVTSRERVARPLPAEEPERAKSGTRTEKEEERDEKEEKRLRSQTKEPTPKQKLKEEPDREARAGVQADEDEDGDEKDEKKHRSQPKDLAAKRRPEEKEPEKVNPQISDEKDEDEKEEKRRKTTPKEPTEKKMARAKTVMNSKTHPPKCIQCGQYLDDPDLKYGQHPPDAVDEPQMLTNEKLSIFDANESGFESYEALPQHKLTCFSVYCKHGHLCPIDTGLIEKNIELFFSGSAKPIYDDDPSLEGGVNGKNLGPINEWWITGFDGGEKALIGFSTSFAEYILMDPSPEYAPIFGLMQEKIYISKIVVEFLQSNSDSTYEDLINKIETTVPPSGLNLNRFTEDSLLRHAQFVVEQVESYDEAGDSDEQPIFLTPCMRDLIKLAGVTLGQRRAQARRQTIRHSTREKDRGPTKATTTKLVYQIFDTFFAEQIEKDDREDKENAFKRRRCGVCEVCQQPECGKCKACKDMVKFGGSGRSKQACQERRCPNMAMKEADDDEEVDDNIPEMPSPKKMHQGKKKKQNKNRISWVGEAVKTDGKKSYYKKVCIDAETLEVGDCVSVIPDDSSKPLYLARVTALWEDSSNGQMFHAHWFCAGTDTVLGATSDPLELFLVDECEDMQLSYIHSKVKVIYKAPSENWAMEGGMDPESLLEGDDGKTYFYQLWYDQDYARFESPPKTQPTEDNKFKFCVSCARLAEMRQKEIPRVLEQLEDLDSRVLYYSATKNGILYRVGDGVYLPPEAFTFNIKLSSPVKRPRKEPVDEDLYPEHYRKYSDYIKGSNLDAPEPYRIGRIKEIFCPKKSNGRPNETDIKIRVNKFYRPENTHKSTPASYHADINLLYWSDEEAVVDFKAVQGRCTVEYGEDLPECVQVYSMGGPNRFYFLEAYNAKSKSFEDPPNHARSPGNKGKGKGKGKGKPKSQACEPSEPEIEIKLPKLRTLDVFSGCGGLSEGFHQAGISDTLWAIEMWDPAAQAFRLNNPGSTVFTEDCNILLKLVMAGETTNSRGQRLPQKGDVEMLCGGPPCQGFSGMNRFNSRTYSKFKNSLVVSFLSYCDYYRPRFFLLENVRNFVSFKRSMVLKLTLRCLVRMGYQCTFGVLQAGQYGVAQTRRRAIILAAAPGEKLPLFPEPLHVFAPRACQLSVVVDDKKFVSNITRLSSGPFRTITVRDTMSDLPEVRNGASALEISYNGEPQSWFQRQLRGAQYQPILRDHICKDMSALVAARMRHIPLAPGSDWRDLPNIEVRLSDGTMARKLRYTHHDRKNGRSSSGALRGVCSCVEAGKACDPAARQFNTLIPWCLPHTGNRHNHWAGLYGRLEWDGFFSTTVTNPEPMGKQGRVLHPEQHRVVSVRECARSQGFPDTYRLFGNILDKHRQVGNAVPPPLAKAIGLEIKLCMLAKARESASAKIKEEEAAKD

B1: Human Recombinant GST-METTL14 (natural protein, UniProt Q9HCE5 1-456, looked up)
chain: MDSRLQEIRERQKLRRQLLAQQLGAESADSIGAVLNSKDEQREIAETRETCRASYDTSAPNAKRKYLDEGETDEDKMEEYKDELEMQQDEENLPYEEEIYKDSSTFLKGTQSLNPHNDYCQHFVDTGHRPQNFIRDVGLADRFEEYPKLRELIRLKDELIAKSNTPPMYLQADIEAFDIRELTPKFDVILLEPPLEEYYRETGITANEKCWTWDDIMKLEIDEIAAPRSFIFLWCGSGEGLDLGRVCLRKWGYRRCEDICWIKTNKNNPGKTKTLDPKAVFQRTKEHCLMGIKGTVKRSTDGDFIHANVDIDLIITEEPEIGNIEKPVEIFHIIEHFCLGRRRLHLFGRDSTIRPGWLTVGPTLTNSNYNAETYASYFSAPNSYLTGCTEEIERLRPKSPPPKSKSDRGGGAPRGGGRGGTSAGRGRERNRSNFRGERGGFRGGRGGAHRGGFPPR
As for B1, in test [1], the binding result is “binds”.

B2: Flag-tagged recombinant human METTL14 protein (natural protein, UniProt Q9HCE5 1-456, looked up)
chain: MDSRLQEIRERQKLRRQLLAQQLGAESADSIGAVLNSKDEQREIAETRETCRASYDTSAPNAKRKYLDEGETDEDKMEEYKDELEMQQDEENLPYEEEIYKDSSTFLKGTQSLNPHNDYCQHFVDTGHRPQNFIRDVGLADRFEEYPKLRELIRLKDELIAKSNTPPMYLQADIEAFDIRELTPKFDVILLEPPLEEYYRETGITANEKCWTWDDIMKLEIDEIAAPRSFIFLWCGSGEGLDLGRVCLRKWGYRRCEDICWIKTNKNNPGKTKTLDPKAVFQRTKEHCLMGIKGTVKRSTDGDFIHANVDIDLIITEEPEIGNIEKPVEIFHIIEHFCLGRRRLHLFGRDSTIRPGWLTVGPTLTNSNYNAETYASYFSAPNSYLTGCTEEIERLRPKSPPPKSKSDRGGGAPRGGGRGGTSAGRGRERNRSNFRGERGGFRGGRGGAHRGGFPPR
Turning to B2, the binding result in test [2] is listed as “binds”.
